Assay results from patent US20030186329.

Assays:
[1] = system: phage clone 34, displaying hexamer RNAQVR
peptide SGKS [2] = system: T1, peptide SGKS
T1 sequence: SGKS

peptide LGGSGRNAQVRLE [3] = system: T2, peptide LGGSGRNAQVRLE
T2 sequence: LGGSGRNAQVRLE

[4] = target: fusion of maltose binding protein, QRGRSA and the HY4 gene product of Arabidopsis thaliana (UniProt Q43125)
peptide LGQRGRSANAILE [5] = system: T3, peptide LGQRGRSANAILE
T3 sequence: LGQRGRSANAILE

[6] = system: T4, peptide (III) of Table 1, LGGSGERARGALE
T4 sequence: LGGSGERARGALE

[7] = system: phage 33, displaying hexamer RSANAI
peptide LGGSGRKASLSLE [8] = system: T5, peptide LGGSGRKASLSLE
T5 sequence: LGGSGRKASLSLE

[9] = system: T6, peptide (I), native cleavage sequence from plasminogen
T6 sequence: KKSPGRVVGGSVAH

peptide LGGSGRSANAILE [10] = system: T7, peptide LGGSGRSANAILE
T7 sequence: LGGSGRSANAILE

[11] = system: T8, peptide (II) of Table 1, LGGSGQRGRKALE
T8 sequence: LGGSGQRGRKALE

[12] = system: phage clone 37, displaying hexamer RKASLS
[13] = system: T9, peptide (VII) of Table 1, FRGRK
T9 sequence: FRGRK

[14] = system: phage clone 39, displaying hexamer RSAVVK
peptide LGGSGRSATRDLE [15] = system: T10, peptide LGGSGRSATRDLE
T10 sequence: LGGSGRSATRDLE

[16] = system: T11, peptide (V) of Table 1, YGRS
T11 sequence: YGRS

peptide SGRS [17] = system: T12, peptide SGRS
T12 sequence: SGRS

[18] = system: T13, peptide (VI) of Table 1, RGRK
T13 sequence: RGRK

peptide GSGKS [19] = system: T14, peptide GSGKS
T14 sequence: GSGKS

[20] = system: phage clone 40, displaying hexamer RSSSSH
peptide LGGYGRSANAILE [21] = system: T15, peptide LGGYGRSANAILE
T15 sequence: LGGYGRSANAILE

peptide LGGRGRSANAILE [22] = system: T16, peptide LGGRGRSANAILE
T16 sequence: LGGRGRSANAILE

[23] = system: phage clone 36, displaying hexamer RSAKVD
[24] = system: T17, peptide (IV) of Table 1, LGGSGHYGRSGLE
T17 sequence: LGGSGHYGRSGLE

peptide SGRSA [25] = system: T18, peptide SGRSA
T18 sequence: SGRSA

[26] = system: phage clone 35, displaying hexamer RSATRD
[27] = system: phage clone 38, displaying hexamer RRAVSN
peptide LGGSGRNAQVRLE [28] = system: T2, peptide LGGSGRNAQVRLE; assay: kinetics of peptide hydrolysis by the enzyme, HPLC, Eadie-Hofstee
peptide LGQRGRSANAILE [29] = system: T3, peptide LGQRGRSANAILE; assay: as above
[30] = system: T4, peptide (III) of Table 1, LGGSGERARGALE; assay: as above
peptide LGGSGRKASLSLE [31] = system: T5, peptide LGGSGRKASLSLE; assay: as above
[32] = system: T6, peptide (I), native cleavage sequence from plasminogen; assay: as above
peptide LGGSGRSANAILE [33] = system: T7, peptide LGGSGRSANAILE; assay: as above
[34] = system: T8, peptide (II) of Table 1, LGGSGQRGRKALE; assay: as above
peptide LGGSGRSATRDLE [35] = system: T10, peptide LGGSGRSATRDLE; assay: as above
peptide LGGYGRSANAILE [36] = system: T15, peptide LGGYGRSANAILE; assay: as above
peptide LGGRGRSANAILE [37] = system: T16, peptide LGGRGRSANAILE; assay: as above
[38] = system: T17, peptide (IV) of Table 1, LGGSGHYGRSGLE; assay: as above
peptide LGGSGRSANAILE [39] = system: T7, peptide LGGSGRSANAILE; assay: kinetics of peptide hydrolysis by u-PA, HPLC, Eadie-Hofstee
peptide SGKS [40] = system: T1, peptide SGKS; assay: kinetics of peptide hydrolysis by the enzyme, HILIC HPLC, Eadie-Hofstee
[41] = system: T9, peptide (VII) of Table 1, FRGRK; assay: as above
[42] = system: T11, peptide (V) of Table 1, YGRS; assay: as above
peptide SGRS [43] = system: T12, peptide SGRS; assay: as above
[44] = system: T13, peptide (VI) of Table 1, RGRK; assay: as above
peptide GSGKS [45] = system: T14, peptide GSGKS; assay: as above
peptide SGRSA [46] = system: T18, peptide SGRSA; assay: as above

fusion of maltose binding protein, QRGRSA and the HY4 gene product of Arabidopsis thaliana, sequence (Q43125 other isoform, or with tags, fused parts or gaps): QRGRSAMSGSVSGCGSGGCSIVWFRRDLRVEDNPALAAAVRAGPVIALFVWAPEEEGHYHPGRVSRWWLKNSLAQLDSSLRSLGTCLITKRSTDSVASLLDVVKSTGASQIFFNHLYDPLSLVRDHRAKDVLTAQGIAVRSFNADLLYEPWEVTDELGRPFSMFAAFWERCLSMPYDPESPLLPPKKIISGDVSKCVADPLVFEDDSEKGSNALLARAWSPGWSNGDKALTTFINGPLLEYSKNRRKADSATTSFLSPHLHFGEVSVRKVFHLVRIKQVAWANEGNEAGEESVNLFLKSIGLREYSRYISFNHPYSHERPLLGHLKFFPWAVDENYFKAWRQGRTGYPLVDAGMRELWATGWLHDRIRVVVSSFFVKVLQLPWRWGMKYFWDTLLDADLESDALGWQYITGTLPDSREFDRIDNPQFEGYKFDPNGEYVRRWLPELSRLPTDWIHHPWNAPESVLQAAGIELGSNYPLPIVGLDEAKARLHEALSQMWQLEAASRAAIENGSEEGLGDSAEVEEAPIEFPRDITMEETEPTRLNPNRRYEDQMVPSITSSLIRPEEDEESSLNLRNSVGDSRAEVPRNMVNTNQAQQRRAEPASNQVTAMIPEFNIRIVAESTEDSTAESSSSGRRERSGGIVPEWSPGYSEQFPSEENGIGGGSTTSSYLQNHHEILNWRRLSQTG

urokinase-type plasminogen activator (u-PA)
dot blot analysis under the most stringent conditions of digestion [1]: proved to be particularly labile u-PA substrates
fold decrease of catalytic efficiency against peptide (VI) SGRS (peptide SGKS [2]): by a factor of 7 for u-PA
kcat (peptide SGKS [2]): 1.22 s⁻¹
kcat/Km (peptide SGKS [2]): 154 M⁻¹ s⁻¹
kcat (peptide LGGSGRNAQVRLE [3]): 3.69 s⁻¹
kcat/Km (peptide LGGSGRNAQVRLE [3]): 3200 M⁻¹ s⁻¹
cleavage of fusion protein, SDS-PAGE [4]: whereas u-PA did not
kcat (peptide LGQRGRSANAILE [5]): 0.068 s⁻¹
kcat/Km (peptide LGQRGRSANAILE [5]): 45 M⁻¹ s⁻¹
kcat [6]: 0.004 s⁻¹
kcat/Km [6]: 4 M⁻¹ s⁻¹
dot blot analysis under the most stringent conditions of digestion [7]: proved to be particularly labile u-PA substrates
kcat (peptide LGGSGRKASLSLE [8]): 1.14 s⁻¹
kcat/Km (peptide LGGSGRKASLSLE [8]): 1010 M⁻¹ s⁻¹
kcat [9]: 0.003 s⁻¹
kcat/Km [9]: 0.88 M⁻¹ s⁻¹
fold improvement as substrate against control peptide (I) (peptide LGGSGRSANAILE [10]): by factors of 840-5300
fold increase of kcat against control peptide (I) (peptide LGGSGRSANAILE [10]): increased by a factor of more than 940
kcat (peptide LGGSGRSANAILE [10]): 2.83 s⁻¹
kcat/Km (peptide LGGSGRSANAILE [10]): 4700 M⁻¹ s⁻¹
kcat [11]: 0.02 s⁻¹
kcat/Km [11]: 9.2 M⁻¹ s⁻¹
dot blot analysis under the most stringent conditions of digestion [12]: proved to be particularly labile u-PA substrates
kcat [13]: 0.14 s⁻¹
kcat/Km [13]: 16 M⁻¹ s⁻¹
dot blot analysis under the most stringent conditions of digestion [14]: proved to be particularly labile u-PA substrates
fold improvement as substrate against control peptide (I) (peptide LGGSGRSATRDLE [15]): by factors of 840-5300
kcat (peptide LGGSGRSATRDLE [15]): 0.54 s⁻¹
kcat/Km (peptide LGGSGRSATRDLE [15]): 740 M⁻¹ s⁻¹
kcat [16]: 2.6 s⁻¹
kcat/Km [16]: 230 M⁻¹ s⁻¹
kcat (peptide SGRS [17]): 2.3 s⁻¹
kcat/Km (peptide SGRS [17]): 1100 M⁻¹ s⁻¹
kcat [18]: 0.76 s⁻¹
kcat/Km [18]: 16 M⁻¹ s⁻¹
kcat (peptide GSGKS [19]): 0.82 s⁻¹
kcat/Km (peptide GSGKS [19]): 193 M⁻¹ s⁻¹
dot blot analysis under the most stringent conditions of digestion [20]: proved to be particularly labile u-PA substrates
kcat (peptide LGGYGRSANAILE [21]): 0.7 s⁻¹
kcat/Km (peptide LGGYGRSANAILE [21]): 318 M⁻¹ s⁻¹
kcat (peptide LGGRGRSANAILE [22]): 0.08 s⁻¹
kcat/Km (peptide LGGRGRSANAILE [22]): 67 M⁻¹ s⁻¹
dot blot analysis under the most stringent conditions of digestion [23]: proved to be particularly labile u-PA substrates
kcat [24]: 0.059 s⁻¹
kcat/Km [24]: 15 M⁻¹ s⁻¹
kcat (peptide SGRSA [25]): 3.7 s⁻¹
kcat/Km (peptide SGRSA [25]): 1200 M⁻¹ s⁻¹
dot blot analysis under the most stringent conditions of digestion [26]: proved to be particularly labile u-PA substrates
dot blot analysis under the most stringent conditions of digestion [27]: proved to be particularly labile u-PA substrates
Km (peptide LGGSGRNAQVRLE [28]): 1160 µM
Km (peptide LGQRGRSANAILE [29]): 1500 µM
Km [30]: 970 µM
Km (peptide LGGSGRKASLSLE [31]): 1130 µM
Km [32]: 3400 µM
Km (peptide LGGSGRSANAILE [33]): 603 µM
Km [34]: 2180 µM
Km (peptide LGGSGRSATRDLE [35]): 733 µM
Km (peptide LGGYGRSANAILE [36]): 2200 µM
Km (peptide LGGRGRSANAILE [37]): 1200 µM
Km [38]: 3800 µM
fold reduction of Km against control peptide (I) (peptide LGGSGRSANAILE [39]): reduced by a factor of 5.6
Km (peptide SGKS [40]): 7900 µM
Km [41]: 8600 µM
Km [42]: 11400 µM
Km (peptide SGRS [43]): 2100 µM
Km [44]: 46500 µM
Km (peptide GSGKS [45]): 4250 µM
Km (peptide SGRSA [46]): 3100 µM
